This assay deals with T1, mIL-21 (Mus musculus, UniProt Q9ES17).
T1 construct: purchased
Description: Inhibition of IL-21-driven B cell proliferation (Assay IV). The assay is classed as cell-based. Conditions: mouse B cells stimulated with anti-IgM, anti-CD40 and rmIL-21, 72 h, 3H-thymidine incorporation. As to the method:
Assay (IV): Inhibition of IL-21-Driven B Cell Proliferation.
As a functionality test, anti-mIL-21 is tested for its ability to neutralize mIL-21-driven B cell proliferation. Equivalent assays may be performed for testing of anti-hIL-21 antibodies, such as Example 10 of WO2013/164021 that utilizes PBMC's isolated from healthy human volunteers. Further information on ability to inhibit B-cell maturation may be obtained as described in Example 6 and 12 of WO2012/098113.
Mouse B cells are purified from spleens harvested from 6-8 weeks old wild-type C57BL/6 mice. Single cell splenocytes are prepared by forcing the organ through a 70 μm cell strainer into PBS. B cells were purified by anti-B220 positive selection by magnetic beads, using magnetic beads and an AutoMACS cell separator (Miltenyi Biotec) according to manufacturer's protocol.
Cells are stimulated in vitro with: a) soluble anti-IgM (1 μg/mL), b) soluble anti-CD40 (1 μg/mL) and c) mIL-21 (25, 50, 100 ng/mL). 10^5 purified B cells were added per well in a 96-well-plate and stimulated for 72 h at 37° C. with soluble IgM (1 μg/mL), soluble anti-CD40 IgM (1 μg/mL) and rmIL-21 (100 ng/mL) in the presence of an anti-IL-21 antibody or an isotype control antibody. For the last 18 h of incubation 3H-thymidine is added to each well and thymidine-incorporation (proliferation) was measured on a Top Counter liquid scintilator (Perkin Elmer)

B1: Anti-IL-21: Mouse surrogate anti-IL-21 antibody, mIgG1/kappa isotype, VL SEQ ID NO:26 and VH SEQ ID NO:27, raised against recombinant mouse IL-21 (antibody, V domains shown)
VH: MNFGPSLIFLVLILKGVQCEVQLVESGGGLVKPGGSLKLSCAASGFTFNRYSMSWVRQSPEKRLEWVAEISVGGSYTQYVDIVTGRFTISRDNAKNTLYLEMSSLRSEDTAMYYCARLYYSGSGDSYYYAMDYWGQGTSVTVSS
VL: MDFQVQIFSFLLISASVILSRGQTVLIQSPAIMSASPGEKVTMTCSASSSVSYMHWYQQKSGTSPKRWIYDTSKLASGVPARFSGSGSGTSYSLTISSMEAEDAATYYCQQWNSNPPTFGGGTKLEMK
Turning to B1, the “Inhibition of mIL-21-driven B-cell proliferation (in words)” value is “capable of inhibiting B-cell proliferation in a concentration dependent manner”.

Values taken from patent US10105442B2, “Treatment of diabetes type 1 using GLP-1 and anti-IL-21” (Novo Nordisk A/S, priority 2014, dated 2018).
